From article PMC7943195 come the findings set out here.

The target in assay [1] is A. baumannii 19606 PBP1B (Acinetobacter baumannii 19606 (ATCC)).
Assay [2] concerns the target P. aeruginosa PBP1B (Pseudomonas aeruginosa).

“A. baumannii 19606 LpoP(sol) (natural protein)”: the fold stimulation of the glycosyltransferase rate (dansyl-lipid II assay) with 0.5 µM LpoP^Ab(sol), Triton X-100-solubilised PBP1B^Ab in assay [1] is 3.3 fold. As to “P. aeruginosa LpoP(sol) (natural protein)”, in assay [2], the fold increase of the final FRET with 2 µM LpoP^Pa(sol), PBP1B^Pa in liposomes was found to be 2.2 fold and the fold increase of the final FRET with 2 µM LpoP^Pa(sol), Triton X-100-solubilised PBP1B^Pa worked out at 2.1 fold.
